# Data as given in the supplement of paper PMC10126150.
# ± gives the standard deviation of the averaged measurements.
# System: ATP
# Test: switch fluorescence ratio, 500 uM ATP over buffer (Cy3 cluster intensity, sum of 5 cycles each) (fold (ratio)); higher = stronger signal-on switching upon ATP binding; sequences stand for … in TCGTCGGCAGCGTCAGATGTGTATAAGAGACAGTTTTTTTTTTTTTTTTTTTTTTTTT…TC
# Conditions: aptamer strand: ATP DNA aptamer (quencher-CACCTGGGGGAGTATTGCGGAGGAAGG + anchor), 100 nM annealed; ATP concentration: 500 uM
# Method in brief: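 For every switch-domain sequence, the fluorescence ratio is the mean of per-cluster values, each being summed target-cycle Cy3 intensity over summed buffer-cycle Cy3 intensity. Clusters outside 100-1000 RFU were excluded. On a modified Illumina MiSeq flow-cell, the Cy3-labelled switching-strand clusters were annealed to 100 nM quencher-labelled ATP aptamer, imaged in selection buffer and then after 15 min with 500 uM ATP at 22 °C. Five such cycles were run, with NaOH stripping and re-annealing between them.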
# 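Also: ATP exposure 15 min at 22 °C before imaging.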
sequence,measurement,value
TGGACTCTGG,switch fluorescence ratio,0.973 ± 0.02
AGGTTAATTG,switch fluorescence ratio,0.9909 ± 0.0072
CGCACGAGGC,switch fluorescence ratio,1.23 ± 0.05
TTTGTCATCG,switch fluorescence ratio,1.03 ± 0.018
CAAGCTTAAA,switch fluorescence ratio,0.9729 ± 0.009
GCGTAAGTGC,switch fluorescence ratio,1.092 ± 0.006
GGGGAGAATA,switch fluorescence ratio,1.01 ± 0.026
GGGAAATTGA,switch fluorescence ratio,1.01 ± 0.031
TAAGTTATAT,switch fluorescence ratio,0.985 ± 0.015
GGGTGGAAGC,switch fluorescence ratio,1.02 ± 0.018
AGAAATTGGG,switch fluorescence ratio,0.992 ± 0.028
TGGGCAAGGT,switch fluorescence ratio,1.05 ± 0.038
AGTTATCCAT,switch fluorescence ratio,1.001 ± 0.0083
GCAGCAGATG,switch fluorescence ratio,1.077 ± 0.0072
GGGCCTGAAA,switch fluorescence ratio,1.08 ± 0.093
TGACGTGCGT,switch fluorescence ratio,1.02 ± 0.012
CATTGGTCAT,switch fluorescence ratio,0.995 ± 0.045
ACACTCATTG,switch fluorescence ratio,1.06 ± 0.074
TCGGGAGGTT,switch fluorescence ratio,1.01 ± 0.031
TCCCTAACAC,switch fluorescence ratio,1.12 ± 0.023
ATCTTTACCT,switch fluorescence ratio,1.26 ± 0.036
CAGCAATTAT,switch fluorescence ratio,2.95 ± 0.28
TTTTCGAGGT,switch fluorescence ratio,1.17 ± 0.24
TACCATTAGT,switch fluorescence ratio,1.041 ± 0.0085
GGGGGGTTTC,switch fluorescence ratio,1.1 ± 0.2
TAGGCCCCTG,switch fluorescence ratio,0.985 ± 0.041
TAATGTAATG,switch fluorescence ratio,0.999 ± 0.031
CAAAGTGAAC,switch fluorescence ratio,1.01 ± 0.017
TACGTCCCGA,switch fluorescence ratio,1.01 ± 0.045
TTTATTTCTT,switch fluorescence ratio,0.98163 ± 0.0001
CCACCTATCT,switch fluorescence ratio,1.09 ± 0.052
AGTGTTACTG,switch fluorescence ratio,0.975 ± 0.044
GTTTTTGTTT,switch fluorescence ratio,1 ± 0.033
TGATACTGGG,switch fluorescence ratio,1.06 ± 0.06
ATTAAGGCCC,switch fluorescence ratio,0.988 ± 0.044
CCAACGGCCA,switch fluorescence ratio,1.2 ± 0.049
ATTTGTATTG,switch fluorescence ratio,1.01 ± 0.022
AAGGGAAAGA,switch fluorescence ratio,1.02 ± 0.061
TGCGAAAATT,switch fluorescence ratio,1.01 ± 0.08
AAGAGGGTTC,switch fluorescence ratio,1.02 ± 0.081
AGTTTGAAAT,switch fluorescence ratio,1.01 ± 0.03
GTTACTAATT,switch fluorescence ratio,0.9943 ± 0.0081
TTTAATGGGG,switch fluorescence ratio,1.02 ± 0.035
GAGTGTGATG,switch fluorescence ratio,0.97 ± 0.021
CGATATAGAC,switch fluorescence ratio,1.06 ± 0.013
CCGGCACCTG,switch fluorescence ratio,1.02 ± 0.025
AAGGGGGGAA,switch fluorescence ratio,1.06 ± 0.21
TTTATTAAGT,switch fluorescence ratio,1.01 ± 0.033
CTCAATCGAA,switch fluorescence ratio,1.03 ± 0.026
TGGGGCTCTT,switch fluorescence ratio,1 ± 0.013
CGGGGATCGT,switch fluorescence ratio,1 ± 0.032
AGGTGTTGGT,switch fluorescence ratio,1.03 ± 0.025
GCTCGTTTGG,switch fluorescence ratio,0.9745 ± 0.0041
CTATGCTAGT,switch fluorescence ratio,1.01 ± 0.016
AACCTGGGGT,switch fluorescence ratio,1.02 ± 0.0073
TCCTGTTCTG,switch fluorescence ratio,1.02 ± 0.041
ACCTCGTTTC,switch fluorescence ratio,1.02 ± 0.018
ATAGACGTAT,switch fluorescence ratio,1.01 ± 0.011
GACAGGTGAG,switch fluorescence ratio,1.15 ± 0.058
GGCTTGAAGC,switch fluorescence ratio,0.986 ± 0.018
TTAAAATGAG,switch fluorescence ratio,0.9972 ± 0.006
GCCTGCTTGC,switch fluorescence ratio,1.03 ± 0.053
TTTTTTCAAC,switch fluorescence ratio,1.15 ± 0.26
ATGATCGGAT,switch fluorescence ratio,0.977 ± 0.051
TGAAGTTTTA,switch fluorescence ratio,0.989 ± 0.025
ATACTTGAAC,switch fluorescence ratio,1.034 ± 0.0012
GACAGCAGGG,switch fluorescence ratio,1.03 ± 0.025
GCCTATTTGG,switch fluorescence ratio,0.998 ± 0.023
ATAGCGAGGA,switch fluorescence ratio,1.05 ± 0.034
TGGGGTAAAG,switch fluorescence ratio,1.01 ± 0.033
TGATTATCTT,switch fluorescence ratio,1.047 ± 0.0097
GAGTCTTTGG,switch fluorescence ratio,0.973 ± 0.021
GGCTCATTGG,switch fluorescence ratio,0.969 ± 0.025
ACCGCGTGGG,switch fluorescence ratio,1.04 ± 7.3e-05
TGAAAGCCCG,switch fluorescence ratio,1.048 ± 0.0056
TGGGGGAGG,switch fluorescence ratio,0.9974 ± 0.0058
GGGTCGGCGA,switch fluorescence ratio,1.03 ± 0.011
AAAATCGGCG,switch fluorescence ratio,1.05 ± 0.073
CGTTGCAAAG,switch fluorescence ratio,1.03 ± 0.022
TGAGGGTGGT,switch fluorescence ratio,0.981 ± 0.0012
TCATGGAGGC,switch fluorescence ratio,1.02 ± 0.041
ATTTAGTTTA,switch fluorescence ratio,0.996 ± 0.017
AGATGGCTAG,switch fluorescence ratio,0.999 ± 0.018
GAGCGTGGGA,switch fluorescence ratio,1.11 ± 0.081
AGAGGGAAGG,switch fluorescence ratio,0.959 ± 0.014
TCCGTGCAAG,switch fluorescence ratio,3.03 ± 0.48
AAGTGGGGCT,switch fluorescence ratio,1.005 ± 0.0094
GGTCCGATTA,switch fluorescence ratio,1 ± 0.056
ATTGATTCGG,switch fluorescence ratio,0.999 ± 0.014
TGTTGGGGAG,switch fluorescence ratio,0.972 ± 0.025
GAGGACTCGT,switch fluorescence ratio,1.01 ± 0.016
CCCAGTAGCG,switch fluorescence ratio,1.03 ± 0.017
ATATTTGATA,switch fluorescence ratio,1.01 ± 0.039
CGAATTTTTG,switch fluorescence ratio,0.982 ± 0.018
TCAATGTAGT,switch fluorescence ratio,1 ± 0.058
ACATGGCTAA,switch fluorescence ratio,1.08 ± 0.068
GAATCGTAGG,switch fluorescence ratio,0.986 ± 0.016
GGGTTAGTTT,switch fluorescence ratio,0.992 ± 0.049
TGCGCATCTA,switch fluorescence ratio,1.038 ± 0.0098
TATGTAGGGG,switch fluorescence ratio,1.09 ± 0.14
GGCCATACGT,switch fluorescence ratio,1.09 ± 0.094
CCCATTTGCT,switch fluorescence ratio,1.02 ± 0.03
TGTTGGCGCG,switch fluorescence ratio,0.989 ± 0.053
ATCGGTGTGC,switch fluorescence ratio,0.981 ± 0.069
AGGCGGATTT,switch fluorescence ratio,1 ± 0.044
TGCTGGTATA,switch fluorescence ratio,0.983 ± 0.038
GTTCGACTGT,switch fluorescence ratio,1.024 ± 0.0042
GTTTTGTGGA,switch fluorescence ratio,1.01 ± 0.007
CAGTAAAGGG,switch fluorescence ratio,0.9703 ± 0.0059
TTAGGTACCG,switch fluorescence ratio,1.012 ± 0.0016
ACGGCGCTTG,switch fluorescence ratio,1.051 ± 0.0053
ATGGAGCTTG,switch fluorescence ratio,0.983 ± 0.02
ATGTTTGCTT,switch fluorescence ratio,0.974 ± 0.025
CGGAATATGG,switch fluorescence ratio,1.0484 ± 0.001
ATATTATCAG,switch fluorescence ratio,0.986 ± 0.014
AAATAACGGT,switch fluorescence ratio,1.16 ± 0.21
ATGTAGTTCG,switch fluorescence ratio,0.981 ± 0.03
ATCGTAGGTG,switch fluorescence ratio,1.04 ± 0.12
TGGATGGAAT,switch fluorescence ratio,0.961 ± 0.035
GTGAAAACGT,switch fluorescence ratio,1.04 ± 0.035
GTTAAAAATG,switch fluorescence ratio,1.04 ± 0.051
ATACTATGGT,switch fluorescence ratio,0.989 ± 0.038
GAGTCTTTTG,switch fluorescence ratio,1.013 ± 0.0096
GCGAGGTGCA,switch fluorescence ratio,1.03 ± 0.055
CCATTAGTAT,switch fluorescence ratio,1.057 ± 0.0076
ACACCTCCAA,switch fluorescence ratio,1.04 ± 0.027
ACGGACGCCA,switch fluorescence ratio,1.21 ± 0.019
AGATGATAGG,switch fluorescence ratio,1.0282 ± 0.00044
TTGAGAATCC,switch fluorescence ratio,1.007 ± 0.0087
GCTTACGGGA,switch fluorescence ratio,1.028 ± 0.0016
AAGTGGGGGA,switch fluorescence ratio,1.02 ± 0.015
GTGGCTTTTT,switch fluorescence ratio,1 ± 0.037
ATTAGATTTT,switch fluorescence ratio,1.02 ± 0.12
TCTTGATTGT,switch fluorescence ratio,0.974 ± 0.017
GGAGGTAAGG,switch fluorescence ratio,0.973 ± 0.025
GTAGTTTTAC,switch fluorescence ratio,1.042 ± 0.0071
TTGTGTTTGT,switch fluorescence ratio,1 ± 0.03
GCGGAGAGGT,switch fluorescence ratio,1.03 ± 0.022
ATATCCCTGT,switch fluorescence ratio,1.009 ± 0.0049
ATCTAGGGTC,switch fluorescence ratio,1.01 ± 0.031
AAAGGAAGGT,switch fluorescence ratio,1.01 ± 0.024
ACCGGGGTGC,switch fluorescence ratio,1.612 ± 0.0063
TAGAGGGGAT,switch fluorescence ratio,0.985 ± 0.027
TTGAAGCAAA,switch fluorescence ratio,1.44 ± 0.37
CCGAGAAGAG,switch fluorescence ratio,1.58 ± 0.021
AGGGGGGCCA,switch fluorescence ratio,1.02 ± 0.028
TTAACTAGAT,switch fluorescence ratio,1.02 ± 0.016
TTTTTAGGAG,switch fluorescence ratio,1 ± 0.035
TTTGTTTGGC,switch fluorescence ratio,0.983 ± 0.019
CAGGGCGTAT,switch fluorescence ratio,1 ± 0.026
ACTGCTTCCT,switch fluorescence ratio,1.34 ± 0.051
ACAGGAAACG,switch fluorescence ratio,1.042 ± 0.0014
GATGTTGTGG,switch fluorescence ratio,0.9751 ± 0.0029
